Positions count from the first letter of the chain named.
B1: HB37A6 (fully human antibody) (antibody, human IgG1, kappa, V domains shown)
VH: EVQLLDSGGGLVQPGGSLRLSCAASGFTFSSYVMSWVRQAPGKGLNWVSTISHSGGSTYYADSVKGRFTISRDNSKNTLYLQMNSLRAEDTAVYYCAIDAPYYDILTGYRYWGQGTLVTVSS
VL: not shown
B2: Hz69H9 (antibody, human IgG1, kappa, V domains shown)
VH: QVQLVQSGAEVKKPGSSVKVSCKASGYSFSSYNIHWVRQAPGQGLEWMGYIAPFQGDSRYNQKFKGRVTITADKSTSTAYMELSSLRSEDTAVYYCARLNRGNSLDYWGQGTLVTVSS
VL: DIVMTQSPDSLAVSLGERATINCKSSQSLFNSGNQRNYLTWYQQKPGQPPKLLIYWASTRESGVPDRFSGSGSGTDFTLTISSLQAEDVAVYYCQNNYIYPLTFGGGTKVEIKR
B3: 51H10 (antibody, human IgG1, kappa, V domains shown)
VH: EVQLQQSVPELVKPGASVRMSCKASGYTFTKYIIQWVKQKPGQGLEWIAYINPYNDDTKYNEKFKGKATLTSDKSASTAYMELSSLTSEDSAVYYCATTYYGNSFPNWGQGTLVTVSA
VL: DIVMTQSPSSLTVTAGERVTMTCKSSQSLLNSGNQKNYLTWYQQKPGQPPKLLIYWASTRESGVPDRFTGSGSGTDFTLTISSLQSEDLAVYFCQNDYSFPFTFGSGTKLEIKR
B4: 38F8 (antibody, human IgG1, kappa, V domains shown)
VH: EVQLVESGGGLVKPGGSLKLSCAASGFSFSDYGMHWVRQAPEKGLEWIAYINSGSRTLYYADTVKGRFTISRDNAKNTLFLQMTSLRSEETAMYYCTRNAYYGNAMDYWGQGTSVTVSS
VL: DIQMTQSPSSLTVTAGEKVTMSCKSSQSLLNSGNQRNYLTWYQQIPGQPPKLLIYWSSTRGSGVPDRFTGSGSGTDFTLTISSVQAEDLAVYFCQNVYYYPFTFGSGTRLEVKR
B5: 3G3 (antibody, human IgG1, kappa, V domains shown)
VH: QVQLQQSGPQLVRPGASVKISCKASGYSFTTYWMHWVKQRPGQGLEWIGLIDPSDSETRLNQKFKDKATLTVDKSSSTAYMRLSSPTSEDSAVYYCASNRWLLGWGQGTLVTVSS
VL: B3 VL with V3Q, T5I, R18K, T22S, L84V, S86T, F93Y, F100Y, F102L, S106A
B6: 14A5 (antibody, human IgG1, kappa, V domains shown)
VH: QVQLKESGPGLVAPSQSLSITCSVSGFSLNSYGVGWVRQPPGKGLEWLGVIWGDGSTNYHSVLISRLSIRKDNSKSQVFLKLNSLQTDDTATYYCAMITRGNAMDYWGQGTSVTVSS
VL: DIVMTQSPSSLTVTAGEKITMSCKSSQSLLNSGNQRNYLTWYQQKPGQTPKLLIYWASTRKSGVPDRFTGSGSGTDFTLTISSVQAEDLAVYSCQNNYLFPLTFGAGTKLELKR
B7: 25C7 (antibody, human IgG1, kappa, V domains shown)
VH: EVMLVESGGGLVQPGGSRKLSCAASGFTFSDYGMAWVRQAPGKGPEWVAFINNLAYSIYYVDTVTGRFTISRENAKDTLYLEMSSLRSEDTALYYCARFTTGNVMDYWGQGTSVTVSS
VL: DIVMTQSPSSLTVTAGEKVTMTCKSSQSLLNGGNQKNYLTWYQQKPGQPPKLLIYWSSTRESGVPDRFTGSGSGTDFTLTITSVQAEDLAVYYCQNSYSYPLTFGSGTKLELKR
B8: 46F6 (antibody, human IgG1, kappa, V domains shown)
VH: QVQLKESGPGLVAPSQSLSITCTVSGFSLTDYGVSWIRQPPGKGLEWLGVMWGGGNTYYNSALKSRLSISKDNSKSQVFLKMNSLQSDDTAMYYCAKQRYGGNAMDYWGQGTSVTVSS
VL: DIQMTQSPSSLTVTAGEKVTMSCKSSQSLLNSGNQRNYLTWYQQIPGQPPKLLIYWASTRESGVPNRFTGSGSGAEFTLTISSVQTEDLAVYYCQNSYFYPFTFGAGTKLELKR
B9: 69H9 (antibody, human IgG1, kappa, V domains shown)
VH: EVQLQQSGPELMKPGASVKISCKATGYSFSSYNIHWVKQSHGKSLEWIGYIAPFNGDSRYNQKFKGKATVTVDKSSSTAYMHLSSLTSEDSAVYYCGRLNRGNSLDYWGQGTSLTVSS
VL: B6 VL with I19V, L30F, T49P, K61E, V91F, S93Y, L99I, F100Y
B10: 59C1 (antibody, human IgG1, kappa, V domains shown)
VH: QVQLKESGPDLVKPSQSLSLTCTVTGYSITSGYGWNWIRQFPGNKLEWMGYIHFSGSTNYNPSLKSRISITRDTSKNQFFLQLNSVTTEDTATYYCARSGKGNAMDYWGQGTSVTVSS
VL: DIQMTQSPSSLTVTAGEKVTMSCKSSQSLLNSGNQKNYLTWYQQKPGQPPKLLIYWASTRESGVPDRFTGSGSGTDFTLTVINMQAEDLALYYCQNDYYFPFTFGSGTKLEIKR
B11: Positive control antibody Zmab (zolbetuximab) (antibody, human IgG1, kappa, V domains shown)
VH: QVQLQQPGAELVRPGASVKLSCKASGYTFTSYWINWVKQRPGQGLEWIGNIYPSDSYTNYNQKFKDKATLTVDKSSSTAYMQLSSPTSEDSAVYYCTRSWRGNSFDYWGQGTTLTVSS
VL: B3 VL with R18K, T22S, L84V, S86A, F93Y, F100Y

Molecular target: T1, human CLDN18.2 on cells (CHO-hCLDN18.2, HEK293-hCLDN18.2, KATO III-hCLDN18.2, DAN-G-hCLDN18.2, NUGC-4) (human, UniProt P56856-2 1-261)
T1 construct: whole, on cells; NUGC-4 is used untransfected; also called human Claudin18.2
Assay: flow cytometry (FACS) on the gastric cancer cell line NUGC-4, MFI against Log[Conc(nM)]; EC50 from the table under the plot
Experimental: (§1) Referring to Example 4, the binding of the two antibodies to each of the gastric cancer cell line NUGC-4, the gastric cancer cell line KATO III-hCLDN18.2 and the pancreatic cancer cell line DAN-G-hCLDN18.2 was determined by FACS.

Binder | EC50 [nM]
B1 | 1.08
B2 | 2.2

Molecular target: T1, human CLDN18.2 on cells (CHO-hCLDN18.2, …)
Assay: flow cytometry (FACS) on KATO III-hCLDN18.2 cells, MFI against Log[Conc(nM)]; EC50 from the table under the plot
Experimental: as §1

Binder | EC50 [nM]
B1 | 0.569
B2 | 3.25

Molecular target: T2, human CLDN18.1 on cells (CHO-hCLDN18.1) (human, UniProt P56856 1-261)
T2 construct: whole, on cells; also called human Claudin18.1
Assay: flow cytometry (FACS) on CHO-hCLDN18.1 cells
Experimental: (§2) The binding of each of the above 9 antibodies to the CHO-S cell lines stably transfected with human CLDN18.2 and human CLDN18.1 (i.e., CHO-hCLDN18.2 and CHO-hCLDN18.1 prepared as described in the Examples) obtained in Example 1 was determined by flow cytometry (FACS). Reference was made to Example 2 for the experimental methods. The experimental data were analyzed using GraphPad Prism software, and FIGS. 1 and 2 were obtained.

Binder | binding result
B3 | no binding
B1 | no binding
B4 | no binding
B5 | no binding
B6 | no binding
B7 | no binding
B8 | no binding
B9 | no binding
B10 | no binding

Molecular target: T1, human CLDN18.2 on cells (CHO-hCLDN18.2, …)
Assay: flow cytometry (FACS) on DAN-G-hCLDN18.2 cells, MFI against Log[Conc (nM)]; EC50 from the table under the plot
Experimental: as §1

Binder | EC50 [nM]
B1 | 0.958
B2 | 1.79

Molecular target: T1, human CLDN18.2 on cells (CHO-hCLDN18.2, …)
Assay: flow cytometry (FACS) on CHO-hCLDN18.2 cells, MFI against Log[Conc.(nM)]; EC50 from the table under the plot
Experimental: as §2

Binder | EC50 [nM]
B11 | 3.12
B8 | 5.41
B9 | 5.36

Molecular target: T1, human CLDN18.2 on cells (CHO-hCLDN18.2, …)
Assay: as above
Remark: another data set of the same source
Experimental: as §2

Binder | EC50 [nM]
B11 | 3.31
B1 | 5.51
B4 | 5.88

Molecular target: T3, human Claudin18.2 protein (P50251802, GenScript) (human, UniProt P56856-2 1-261, limits assumed)
T3 construct: also called human CLDN18.2
Assay: SPR (Biacore T200), human Claudin18.2 amine-coupled to the chip, antibody 0-100 nM in the mobile phase, 1:1 model
Experimental: According to the manufacturer's instructions, human Claudin18.2 (GenScrip, P50251802) was coupled to the surface of a CMS chip (GE Healthcare, 29-1496-03) using the amino coupling kit (GE Healthcare, BR-1006-33), and the remaining activation sites were blocked by injection of 1 M ethanolamine after coupling. According to the manufacturer's instructions, the binding and dissociation between the antigen on the chip surface and antibodies in the mobile phase were determined by Biacore (GE Healthcare, T200) to obtain affinity and kinetic constants. The antibodies (0-100 nM) after gradient dilution flowed over the chip surface in an order from low to high concentrations, with the binding time of 180 s and the dissociation time of 600 s. Finally, the chip was regenerated using 10 mM Glycine pH 1.5 (GE Healthcare, BR-1003-54). Kinetic analysis of the data results were performed using Biacore T200 analysis software with a 1:1 binding model.

Binder | Kd [nM] | koff [s⁻¹] | kon [M⁻¹ s⁻¹]
B1 | 0.72 | 0.000306 | 425000
B2 | 0.299 | 0.000116 | 387000

Molecular target: T3, human Claudin18.2 protein (P50251802, …)
Assay: BLI (Fortebio Octet Red96), AHC sensor, antibody and human Claudin18.2 protein (GenScript)
Experimental: The equilibrium dissociation constant (KD) for binding of the antibodies of the present invention to human CLDN18.2 was determined by bio-layer interferometry (BLI). A BLI affinity assay was conducted according to the existing method (Estep, P et al., High throughput solution based measurement of antibody-antigen affinity and epitope binding. MAbs, 2013.5(2): p. 270-8). The AHC (18-5060, Fortebio) sensor was soaked in SD buffer (lx PBS, BSA 0.1%, Tween-20 0.05%). 100 μL of SD buffer, each antibody and human Claudin18.2 protein (P50251802, GenScript) were added to a 96-well black polystyrene half-area microplate (Greiner, 675076), respectively. The detection was performed using Fortebio Octet Red96, and the KD values were analyzed using Fortebio Octet analysis software.

Binder | Kd [nM]
B3 | 1.9
B11 | 2.14
B1 | 0.326
B4 | 1.03
B5 | 2.8
B6 | 0.529
B7 | 1.46
B8 | 0.732
B9 | 0.946
B10 | 1.01

Molecular target: T1, human CLDN18.2 on cells (CHO-hCLDN18.2, …)
Assay: flow cytometry (FACS) on CHO-hCLDN18.2 cells, MFI against Log[Conc.(nM)]; EC50 from the table under the plot
Remark: another data set of the same source
Experimental: as §2

Binder | EC50 [nM]
B3 | 7.51
B11 | 3.46
B5 | 9.75
B6 | 5.49
B7 | 13.6
B10 | 5.7

From patent US20230235047A1 (Innovent, published 2023)
